Tests used:
HeLa Kyoto [1] = assay: solubility in G1/S (NP-40 vs SDS abundance) (log2 ratio); higher = more soluble; conditions: cell cycle stage: G1/S
HeLa Kyoto [2] = assay: solubility change mitosis vs G1/S (difference of NP-40 vs SDS log2 ratios) (log2 ratio difference); higher = more soluble in mitosis
HeLa Kyoto [3] = assay: melting temperature (median over replicates), in situ; higher = more thermally stable
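Wherever melting temperature (median over replicates), in situ is given: HeLa Kyoto cells synchronized by double thymidine or nocodazole block, proteins quantified by TMT10plex mass spectrometry, three independent biological replicates.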
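Wherever solubility change mitosis vs G1/S (difference of NP-40 vs SDS log2 ratios) is given: synchronized HeLa Kyoto cells (double thymidine block for G1/S, nocodazole release for mitosis), protein amounts in NP-40 versus SDS lysates quantified by mass spectrometry, three biological replicates.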
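Wherever solubility in G1/S (NP-40 vs SDS abundance) is given: HeLa Kyoto cells arrested at G1/S by double thymidine block, proteins quantified by TMT10plex mass spectrometry in mild NP-40 versus SDS extracts, three biological replicates.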

Sequence | solubility in G1/S (log2) (HeLa Kyoto [1]) | solubility change mitosis (log2) (HeLa Kyoto [2]) | melting temperature (HeLa Kyoto [3]; cell cycle stage: G1/S) [°C] | melting temperature (HeLa Kyoto [3]; cell cycle stage: mitosis) [°C]
MASYFDEHDCEPSDPEQETRTNMLLELARSLFNRMDFEDLGLVVDWDHHLPPPAAKTVVENLPRTVIRGSQAELKCPVCLLEFEEEETAIEMPCHHLFHSSCILPWLSKTNSCPLCRYELPTDDDTYEEHRRDKARKQQQQHRLENLHGAMYT [RNF181] | 0.563 | 0.00514 | 54.8 | 55.8
MATSTGRWLLLRLALFGFLWEASGGLDSGASRDDDLLLPYPRARARLPRDCTRVRAGNREHESWPPPPATPGAGGLAVRTFVSHFRDRAVAGHLTRAVEPLRTFSVLEPGGPGGCAARRRATVEETARAADCRVAQNGGFFRMNSGECLGNVVSDERRVSSSGGLQNAQFGIRRDGTLVTGYLSEEEVLDTENPFVQLLSGVVWLIRNGSIYINESQATECDETQETGSFSKFVNVISARTAIGHDRKGQLVLFHADGQTEQRGINLWEMAEFLLKQDVVNAINLDGGGSATFVLNGTLASYPSDHCQDNMWRCPRQVSTVVCVHEPRCQPPDCHGHGTCVDGHCQCTGHFWRGPGCDELDCGPSNCSQHGLCTETGCRCDAGWTGSNCSEECPLGWHGPGCQRPCKCEHHCPCDPKTGNCSVSRVKQCLQPPEATLRAGELSFFTRTAWLALTLALAFLLLISTAANLSLLLSRAERNRRLHGDYAYHPLQEMNGEPLAAEKEQPGGAHNPFKD [NAGPA] | 0.327 | -0.232 | 54.5 | 55.4
MAVCGLGSRLGLGSRLGLRGCFGAARLLYPRFQSRGPQGVEDGDRPQPSSKTPRIPKIYTKTGDKGFSSTFTGERRPKDDQVFEAVGTTDELSSAIGFALELVTEKGHTFAEELQKIQCTLQDVGSALATPCSSAREAHLKYTTFKAGPILELEQWIDKYTSQLPPLTAFILPSGGKISSALHFCRAVCRRAERRVVPLVQMGETDANVAKFLNRLSDYLFTLARYAAMKEGNQEKIYMKNDPSAESEGL [MMAB] | 0.574 | 0.126 | 51.8 | 55.8
MAVLKLTDQPPLVQAIFSGDPEEIRMLIHKTEDVNTLDSEKRTPLHVAAFLGDAEIIELLILSGARVNAKDNMWLTPLHRAVASRSEEAVQVLIKHSADVNARDKNWQTPLHVAAANKAVKCAEVIIPLLSSVNVSDRGGRTALHHAALNGHVEMVNLLLAKGANINAFDKKDRRALHWAAYMGHLDVVALLINHGAEVTCKDKKGYTPLHAAASNGQINVVKHLLNLGVEIDEINVYGNTALHIACYNGQDAVVNELIDYGANVNQPNNNGFTPLHFAAASTHGALCLELLVNNGADVNIQSKDGKSPLHMTAVHGRFTRSQTLIQNGGEIDCVDKDGNTPLHVAARYGHELLINTLITSGADTAKCGIHSMFPLHLAALNAHSDCCRKLLSSGFEIDTPDKFGRTCLHAAAAGGNVECIKLLQSSGADFHKKDKCGRTPLHYAAANCHFHCIETLVTTGANVNETDDWGRTALHYAAASDMDRNKTILGNAHDNSEELERARELKEKEATLCLEFLLQNDANPSIRDKEGYNSIHYAAAYGHRQCLELLLERTNSGFEESDSGATKSPLHLAAYNGHHQALEVLLQSLVDLDIRDEKGRTALDLAAFKGHTECVEALINQGASIFVKDNVTKRTPLHASVINGHTLCLRLLLEIADNPEAVDVKDAKGQTPLMLAVAYGHIDAVSLLLEKEANVDTVDILGCTALHRGIMTGHEECVQMLLEQEVSILCKDSRGRTPLHYAAARGHATWLSELLQMALSEEDCCFKDNQGYTPLHWACYNGNENCIEVLLEQKCFRKFIGNPFTPLHCAIINDHGNCASLLLGAIDSSIVSCRDDKGRTPLHAAAFADHVECLQLLLRHSAPVNAVDNSGKTALMMAAENGQAGAVDILVNSAQADLTVKDKDLNTPLHLACSKGHEKCALLILDKIQDESLINEKNNALQTPLHVAARNGLKVVVEELLAKGACVLAVDENASRSNGPRSTPGTAVQKEE [ANKRD44] | -0.235 | -0.0872 | 51.7 | 52.2
MDALEGESFALSFSSASDAEFDAVVGYLEDIIMDDEFQLLQRNFMDKYYLEFEDTEENKLIYTPIFNEYISLVEKYIEEQLLQRIPEFNMAAFTTTLQHHKDEVAGDIFDMLLTFTDFLAFKEMFLDYRAEKEGRGLDLSSGLVVTSLCKSSSLPASQNNLRH [ARL2BP] | -0.148 | 0.0405 | 50.9 | 53
MDDSETGFNLKVVLVSFKQCLDEKEEVLLDPYIASWKGLVRFLNSLGTIFSFISKDVVSKLRIMERLRGGPQSEHYRSLQAMVAHELSNRLVDLERRSHHPESGCRTVLRLHRALHWLQLFLEGLRTSPEDARTSALCADSYNASLAAYHPWVVRRAVTVAFCTLPTREVFLEAMNVGPPEQAVQMLGEALPFIQRVYNVSQKLYAEHSLLDLP [CPTP] | -0.0351 | -0.256 | 49.1 | 48.4
MDFENLFSKPPNPALGKTATDSDERIDDEIDTEVEETQEEKIKLECEQIPKKFRHSAISPKSSLHRKSRSKDYDVYSDNDICSQESEDNFAKELQQYIQAREMANAAQPEESTKKEGVKDTPQAAKQKNKNLKAGHKNGKQKKMKRKWPGPGNKGSNALLRNSGSQEEDGKPKEKQQHLSQAFINQHTVERKGKQICKYFLERKCIKGDQCKFDHDAEIEKKKEMCKFYVQGYCTRGENCLYLHNEYPCKFYHTGTKCYQGEYCKFSHAPLTPETQELLAKVLDTEKKSCK [ZC3H8] | -0.126 | 0.444 | 55.1 | 55.1
MDLPVGPGAAGPSNVPAFLTKLWTLVSDPDTDALICWSPSGNSFHVFDQGQFAKEVLPKYFKHNNMASFVRQLNMYGFRKVVHIEQGGLVKPERDDTEFQHPCFLRGQEQLLENIKRKVTSVSTLKSEDIKIRQDSVTKLLTDVQLMKGKQECMDSKLLAMKHENEALWREVASLRQKHAQQQKVVNKLIQFLISLVQSNRILGVKRKIPLMLNDSGSAHSMPKYSRQFSLEHVHGSGPYSAPSPAYSSSSLYAPDAVASSGPIISDITELAPASPMASPGGSIDERPLSSSPLVRVKEEPPSPPQSPRVEEASPGRPSSVDTLLSPTALIDSILRESEPAPASVTALTDARGHTDTEGRPPSPPPTSTPEKCLSVACLDKNELSDHLDAMDSNLDNLQTMLSSHGFSVDTSALLDLFSPSVTVPDMSLPDLDSSLASIQELLSPQEPPRPPEAENSSPDSGKQLVHYTAQPLFLLDPGSVDTGSNDLPVLFELGEGSYFSEGDGFAEDPTISLLTGSEPPKAKDPTVS [HSF1] | 0.523 | -0.148 | 47.9 | 49.8
MDSELKEEIPVHEEFILCGGAETQVLKCGPWTDLFHDQSVKRPKLLIFIIPGNPGFSAFYVPFAKALYSLTNRRFPVWTISHAGHALAPKDKKILTTSEDSNAQEIKDIYGLNGQIEHKLAFLRTHVPKDMKLVLIGHSIGSYFTLQMLKRVPELPVIRAFLLFPTIERMSESPNGRIATPLLCWFRYVLYVTGYLLLKPCPETIKSLLIRRGLQVMNLENEFSPLNILEPFCLANAAYLGGQEMMEVVKRDDETIKEHLCKLTFYYGTIDPWCPKEYYEDIKKDFPEGDIRLCEKNIPHAFITHFNQEMADMIADSLKDDLSKM [LDAH] | 0.0802 | -0.331 | 52.3 | 
MDTEPNPGTSSVSTTTSSTTTTTITTSSSRMQQPQISVYSGSDRHAVQVIQQALHRPPSSAAQYLQQMYAAQQQHLMLHTAALQQQHLSSSQLQSLAAVQASLSSGRPSTSPTGSVTQQSSMSQTSINLSTSPTPAQLISRSQASSSTSGSITQQTMLLGSTSPTLTASQAQMYLRAQMLIFTPATTVAAVQSDIPVVSSSSSSSCQSAATQVQNLTLRSQKLGVLSSSQNGPPKSTSQTQSLTICHNKTTVTSSKISQRDPSPESNKKGESPSLESRSTAVTRTSSIHQLIAPASYSPIQPHSLIKHQQIPLHSPPSKVSHHQLILQQQQQQIQPITLQNSTQDPPPSQHCIPLQNHGLPPAPSNAQSQHCSPIQSHPSPLTVSPNQSQSAQQSVVVSPPPPHSPSQSPTIIIHPQALIQPHPLVSSALQPGPNLQQSTANQVQATAQLNLPSHLPLPASPVVHIGPVQQSALVSPGQQIVSPSHQQYSSLQSSPIPIASPPQMSTSPPAQIPPLPLQSMQSLQVQPEILSQGQVLVQNALVSEEELPAAEALVQLPFQTLPPPQTVAVNLQVQPPAPVDPPVVYQVEDVCEEEMPEESDECVRMDRTPPPPTLSPAAITVGRGEDLTSEHPLLEQVELPAVASVSASVIKSPSDPSHVSVPPPPLLLPAATTRSNSTSMHSSIPSIENKPPQAIVKPQILTHVIEGFVIQEGLEPFPVSRSSLLIEQPVKKRPLLDNQVINSVCVQPELQNNTKHADNSSDTEMEDMIAEETLEEMDSELLKCEFCGKMGYANEFLRSKRFCTMSCAKRYNVSCSKKFALSRWNRKPDNQSLGHRGRRPSGPDGAAREHILRQLPITYPSAEEDLASHEDSVPSAMTTRLRRQSERERERELRDVRIRKMPENSDLLPVAQTEPSIWTVDDVWAFIHSLPGCQDIADEFRAQEIDGQALLLLKEDHLMSAMNIKLGPALKICARINSLKES [PHC3] | -0.44 | 0.439 | 46.5 | 50.2
MEEEGVKEAGEKPRGAQMVDKAGWIKKSSGGLLGFWKDRYLLLCQAQLLVYENEDDQKCVETVELGSYEKCQDLRALLKRKHRFILLRSPGNKVSDIKFQAPTGEEKESWIKALNEGINRGKNKAFDEVKVDKSCALEHVTRDRVRGGQRRRPPTRVHLKEVASAASDGLLRLDLDVPDSGPPVFAPSNHVSEAQPRETPRPLMPPTKPFLAPETTSPGDRVETPVGERAPTPVSASSEVSPESQEDSETPAEEDSGSEQPPNSVLPDKLKVSWENPSPQEAPAAESAEPSQAPCSETSEAAPREGGKPPTPPPKILSEKLKASMGEMQASGPPAPGTVQVSVNGMDDSPEPAKPSQAEGTPGTPPKDATTSTALPPWDLPPQFHPRCSSLGDLLGEGPRHPLQPRERLYRAQLEVKVASEQTEKLLNKVLGSEPAPVSAETLLSQAVEQLRQATQVLQEMRDLGELSQEAPGLREKRKELVTLYRRSAP [PLEKHO2] | 0.188 | 0.0528 | 53.2 | 51.9
MEELTIWEQHTATLSKDPRRGFGIAISGGRDRPGGSMVVSDVVPGGPAEGRLQTGDHIVMVNGVSMENATSAFAIQILKTCTKMANITVKRPRRIHLPATKASPSSPGRQDSDEDDGPQRVEEVDQGRGYDGDSSSGSGRSWDERSRRPRPGRRGRAGSHGRRSPGGGSEANGLALVSGFKRLPRQDVQMKPVKSVLVKRRDSEEFGVKLGSQIFIKHITDSGLAARHRGLQEGDLILQINGVSSQNLSLNDTRRLIEKSEGKLSLLVLRDRGQFLVNIPPAVSDSDSSPLEDISDLASELSQAPPSHIPPPPRHAQRSPEASQTDSPVESPRLRRESSVDSRTISEPDEQRSELPRESSYDIYRVPSSQSMEDRGYSPDTRVVRFLKGKSIGLRLAGGNDVGIFVSGVQAGSPADGQGIQEGDQILQVNDVPFQNLTREEAVQFLLGLPPGEEMELVTQRKQDIFWKMVQSRVGDSFYIRTHFELEPSPPSGLGFTRGDVFHVLDTLHPGPGQSHARGGHWLAVRMGRDLREQERGIIPNQSRAEQLASLEAAQRAVGVGPGSSAGSNARAEFWRLRGLRRGAKKTTQRSREDLSALTRQGRYPPYERVVLREASFKRPVVILGPVADIAMQKLTAEMPDQFEIAETVSRTDSPSKIIKLDTVRVIAEKDKHALLDVTPSAIERLNYVQYYPIVVFFIPESRPALKALRQWLAPASRRSTRRLYAQAQKLRKHSSHLFTATIPLNGTSDTWYQELKAIIREQQTRPIWTAEDQLDGSLEDNLDLPHHGLADSSADLSCDSRVNSDYETDGEGGAYTDGEGYTDGEGGPYTDVDDEPPAPALARSSEPVQADESQSPRDRGRISAHQGAQVDSRHPQGQWRQDSMRTYEREALKKKFMRVHDAESSDEDGYDWGPATDL [TJP3] | -0.105 | 0.0692 | 50.3 | 50.8

— the supplement of paper PMC5998384
